Test results as given in patent US20220273789A1.

The substances below were run against Human IgG isotype control (ThermoFischer Scientific, ref 12000C) (human) (assay: BLI, gEgI on Ni-NTA tips, hIgG in solution).
For “HSV34 (HSV2-gE_gI) (from UniProt P89475 21-416; P06764 21-256) (receptor)”, the Kd was 116 nM, the Relative Affinity (%) compared to control construct HSV34 was 100% and the koff was 0.000541 s⁻¹. It also gave a kon of 3870 M⁻¹ s⁻¹.
Work on “HSV40 (HSV2- gE_289_insert ADIGL_gI) (from UniProt P89475 21-416; P06764 21-256) (receptor)” yielded a Kd of 628 nM, a Relative Affinity (%) compared to control construct HSV34 of 18% and a koff of 0.00519 s⁻¹. For the same substance, the kon was 8240 M⁻¹ s⁻¹.
“HSV41 (HSV2-gE_338_insert ARAA_gI) (from UniProt P89475 21-416; P06764 21-256) (receptor)” showed a Kd of 1600 nM, a Relative Affinity (%) compared to control construct HSV34 of 7% and a koff of 0.00309 s⁻¹. For the same substance, the kon was 2010 M⁻¹ s⁻¹.
For “HSV42 (HSV2- gE_346_insert ADIT_gI) (from UniProt P89475 21-416; P06764 21-256) (receptor)”, the koff was under 1e-07 s⁻¹ and the kon was 5690 M⁻¹ s⁻¹.
“HSV43 (HSV2- gE_H245A_gI) (from UniProt P89475 21-416; P06764 21-256) (receptor)” gave a koff of under 1e-07 s⁻¹ and a kon of 9410 M⁻¹ s⁻¹.
In the case of “HSV44 (HSV2- gE_H245K_gI) (from UniProt P89475 21-416; P06764 21-256) (receptor)”, the Kd is reported as 673 nM, the Relative Affinity (%) compared to control construct HSV34 is reported as 17% and the koff is reported as 0.00628 s⁻¹. For the same substance, the kon was 9550 M⁻¹ s⁻¹.
For “HSV46 (HSV2- gE_P319A_gI) (from UniProt P89475 21-416; P06764 21-256) (receptor)”, the Kd was 73.5 nM, the Relative Affinity (%) compared to control construct HSV34 was 158% and the koff was 0.000482 s⁻¹. It also gave a kon of 6630 M⁻¹ s⁻¹.
In the case of “HSV47 (HSV2- gE_P319R_gI) (from UniProt P89475 21-416; P06764 21-256) (receptor)”, the Kd is reported as 2550 nM, the Relative Affinity (%) compared to control construct HSV34 is reported as 5% and the koff is reported as 0.00355 s⁻¹. It also gave a kon of 1490 M⁻¹ s⁻¹.
In the case of “HSV48 (HSV2- gE_P319G_gI) (from UniProt P89475 21-416; P06764 21-256) (receptor)”, the Kd is reported as 700 nM, the Relative Affinity (%) compared to control construct HSV34 is reported as 17% and the koff is reported as 0.00556 s⁻¹. The kon was 8130 M⁻¹ s⁻¹.
With “HSV49 (HSV2- gE_P319K_gI) (from UniProt P89475 21-416; P06764 21-256) (receptor)” the Kd was 1710 nM, the Relative Affinity (%) compared to control construct HSV34 was 7% and the koff was 0.00217 s⁻¹. The kon was 1340 M⁻¹ s⁻¹.
“HSV50 (HSV2- gE_P319T_gI) (from UniProt P89475 21-416; P06764 21-256) (receptor)” was tested, and the Kd was 8.91 nM, the Relative Affinity (%) compared to control construct HSV34 was 1300% and the koff was 8.38e-05 s⁻¹. It also gave a kon of 9460 M⁻¹ s⁻¹.
For “HSV51 (HSV2- gE_H245A-P319A_gI) (from UniProt P89475 21-416; P06764 21-256) (receptor)”, the koff was under 1e-07 s⁻¹ and the kon was 11000 M⁻¹ s⁻¹.
Work on “HSV52 (HSV2- gE_H245A-P319R_gI) (from UniProt P89475 21-416; P06764 21-256) (receptor)” yielded a Kd of 2530 nM, a Relative Affinity (%) compared to control construct HSV34 of 5% and a koff of 0.00304 s⁻¹. For the same substance, the kon was 1310 M⁻¹ s⁻¹.
In the case of “HSV53 (HSV2- gE_H245A-P319G_gI) (from UniProt P89475 21-416; P06764 21-256) (receptor)”, the Kd is reported as 807 nM, the Relative Affinity (%) compared to control construct HSV34 is reported as 14% and the koff is reported as 0.00349 s⁻¹. It also gave a kon of 4480 M⁻¹ s⁻¹.
For “HSV54 (HSV2- gE_H245A-P319K_gI) (from UniProt P89475 21-416; P06764 21-256) (receptor)”, the Kd was 883 nM, the Relative Affinity (%) compared to control construct HSV34 was 13% and the koff was 0.00284 s⁻¹. The kon was 3370 M⁻¹ s⁻¹.
“HSV55 (HSV2- gE_H245A-P319T_gI) (from UniProt P89475 21-416; P06764 21-256) (receptor)” showed a Kd of 201 nM, a Relative Affinity (%) compared to control construct HSV34 of 58% and a koff of 0.00105 s⁻¹. The kon was 5330 M⁻¹ s⁻¹.
With “HSV56 (HSV2- gE_A337G_gI) (from UniProt P89475 21-416; P06764 21-256) (receptor)” the Kd was 98.9 nM, the Relative Affinity (%) compared to control construct HSV34 was 117% and the koff was 0.00082 s⁻¹. It also gave a kon of 8430 M⁻¹ s⁻¹.

Each substance was assayed against human IgG (human) (assay: BLI (Octet), gEgI on Ni-NTA sensor, hIgG in solution).
“HSV2-gE_R314L F322P_gI (from UniProt P89475 21-416; P06764 21-256) (receptor)” was tested, and the Kd was 210 nM, the Response was 0.607 nm and the koff was 0.00255 s⁻¹. It also gave a kon of 12100 M⁻¹ s⁻¹.
For “HSV2-gE_R314L P318D_gI (from UniProt P89475 21-416; P06764 21-256) (receptor)”, the Kd was under 0.001 nM, the Response was 0.134 nm and the koff was under 1e-07 s⁻¹. It also gave a kon of 7900 M⁻¹ s⁻¹.
For “HSV2-gE_R314L P318I_gI (from UniProt P89475 21-416; P06764 21-256) (receptor)”, the Kd was 261 nM, the Response was 0.294 nm and the koff was 0.00198 s⁻¹. The kon was 7580 M⁻¹ s⁻¹.
Work on “HSV2-gE_R314L P318R_gI (from UniProt P89475 21-416; P06764 21-256) (receptor)” yielded a Kd of under 0.001 nM, a Response of 0.202 nm and a koff of under 1e-07 s⁻¹. The kon was 8050 M⁻¹ s⁻¹.
With “HSV2-gE_R314L V340M_gI (from UniProt P89475 21-416; P06764 21-256) (receptor)” the Kd was 452 nM, the Response was 0.427 nm and the koff was 0.00456 s⁻¹. The kon was 10100 M⁻¹ s⁻¹.
“HSV2-gE_R314L V340R_gI (from UniProt P89475 21-416; P06764 21-256) (receptor)” showed a Kd of 615 nM, a Response of 0.284 nm and a koff of 0.00307 s⁻¹. It also gave a kon of 4990 M⁻¹ s⁻¹.
Work on “HSV2-gE_R314L V340W_gI (from UniProt P89475 21-416; P06764 21-256) (receptor)” yielded a Kd of 914 nM, a Response of 0.148 nm and a koff of 0.00524 s⁻¹. The kon was 5740 M⁻¹ s⁻¹.
With “HSV2-gE_R314P F322A_gI (from UniProt P89475 21-416; P06764 21-256) (receptor)” the Kd was 247 nM, the Response was 0.655 nm and the koff was 0.00423 s⁻¹. It also gave a kon of 17100 M⁻¹ s⁻¹.
“HSV2-gE_R314P F322I_gI (from UniProt P89475 21-416; P06764 21-256) (receptor)” showed a Kd of 300 nM, a Response of 0.389 nm and a koff of 0.0036 s⁻¹. The kon was 12000 M⁻¹ s⁻¹.
“HSV2-gE_R314P F322P_gI (from UniProt P89475 21-416; P06764 21-256) (receptor)” was tested, and the Kd was 283 nM, the Response was 0.561 nm and the koff was 0.00356 s⁻¹. For the same substance, the kon was 12600 M⁻¹ s⁻¹.
“HSV2-gE_R314P P318D_gI (from UniProt P89475 21-416; P06764 21-256) (receptor)” showed a Kd of 222 nM, a Response of 0.306 nm and a koff of 0.00145 s⁻¹. The kon was 6520 M⁻¹ s⁻¹.
Substance “HSV2-gE_R314P P318I_gI (from UniProt P89475 21-416; P06764 21-256) (receptor)” has a Kd of 277 nM, a Response of 0.248 nm and a koff of 0.00223 s⁻¹. For the same substance, the kon was 8040 M⁻¹ s⁻¹.
In the case of “HSV2-gE_R314P P318R_gI (from UniProt P89475 21-416; P06764 21-256) (receptor)”, the Kd is reported as 317 nM, the Response is reported as 0.371 nm and the koff is reported as 0.00199 s⁻¹. For the same substance, the kon was 6270 M⁻¹ s⁻¹.
“HSV2-gE_R314P V340M_gI (from UniProt P89475 21-416; P06764 21-256) (receptor)” showed a Kd of 402 nM, a Response of 0.525 nm and a koff of 0.0046 s⁻¹. For the same substance, the kon was 11400 M⁻¹ s⁻¹.
“HSV2-gE_R314P V340R_gI (from UniProt P89475 21-416; P06764 21-256) (receptor)” gave a Kd of 459 nM, a Response of 0.351 nm and a koff of 0.00241 s⁻¹. The kon was 5260 M⁻¹ s⁻¹.
Substance “HSV2-gE_R314P V340W_gI (from UniProt P89475 21-416; P06764 21-256) (receptor)” has a Kd of 560 nM, a Response of 0.134 nm and a koff of 0.00355 s⁻¹. For the same substance, the kon was 6340 M⁻¹ s⁻¹.
